Consider seven molecules from US20220162331A1 (CHENGDU CONMED BIOSCIENCES, published 2022).

Residue numbers refer to the chain shown, from its start. Like-named read-outs stand apart in the source and are kept apart here.

For test [1], the target named is T1, human full-length CD73 on hCD73-CHO-1C11 cells (human, UniProt P21589 27-549).
T1 construct: it may be a nucleotide entry; also called CHO-CD73-1C11
T1 sequence: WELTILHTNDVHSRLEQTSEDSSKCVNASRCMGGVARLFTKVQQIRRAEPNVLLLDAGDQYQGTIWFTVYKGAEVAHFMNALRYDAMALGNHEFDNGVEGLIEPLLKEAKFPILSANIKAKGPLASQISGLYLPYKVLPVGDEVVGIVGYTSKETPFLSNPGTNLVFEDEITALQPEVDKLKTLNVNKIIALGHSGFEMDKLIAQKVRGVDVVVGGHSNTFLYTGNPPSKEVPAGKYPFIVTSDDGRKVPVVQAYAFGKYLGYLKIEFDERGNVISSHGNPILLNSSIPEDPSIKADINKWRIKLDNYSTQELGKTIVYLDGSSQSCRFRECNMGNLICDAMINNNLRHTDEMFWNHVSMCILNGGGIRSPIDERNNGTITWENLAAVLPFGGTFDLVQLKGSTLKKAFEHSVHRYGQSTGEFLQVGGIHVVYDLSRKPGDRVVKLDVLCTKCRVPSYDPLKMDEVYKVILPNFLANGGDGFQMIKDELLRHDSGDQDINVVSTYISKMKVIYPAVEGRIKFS
The experiment in a line: FACS on CHO-CD73-1C11 cells.

Test [2] deals with T2, human CD73 on Calu6 cells (human, UniProt P21589 27-549).
T2 sequence (looked up): T1 sequence
The experiment in a line: cell-based or functional assay.

The target of test [3] is T2, human CD73 on Calu6 cells. Briefly: FACS on Calu6 cells.
Test [4] addresses T2, human CD73 on Calu6 cells. The experiment in a line: cell-based or functional assay. This is another data set of the same source.
Test [5] deals with T3, recombinant cynomolgus monkey CD73 extracellular domain (Trp27-Lys546) (cynomolgus monkey, UniProt P21589 27-547 (human entry)).
T3 construct: also called cynoCD73; recombinant monkey CD73 extracellular domain
T3 chain: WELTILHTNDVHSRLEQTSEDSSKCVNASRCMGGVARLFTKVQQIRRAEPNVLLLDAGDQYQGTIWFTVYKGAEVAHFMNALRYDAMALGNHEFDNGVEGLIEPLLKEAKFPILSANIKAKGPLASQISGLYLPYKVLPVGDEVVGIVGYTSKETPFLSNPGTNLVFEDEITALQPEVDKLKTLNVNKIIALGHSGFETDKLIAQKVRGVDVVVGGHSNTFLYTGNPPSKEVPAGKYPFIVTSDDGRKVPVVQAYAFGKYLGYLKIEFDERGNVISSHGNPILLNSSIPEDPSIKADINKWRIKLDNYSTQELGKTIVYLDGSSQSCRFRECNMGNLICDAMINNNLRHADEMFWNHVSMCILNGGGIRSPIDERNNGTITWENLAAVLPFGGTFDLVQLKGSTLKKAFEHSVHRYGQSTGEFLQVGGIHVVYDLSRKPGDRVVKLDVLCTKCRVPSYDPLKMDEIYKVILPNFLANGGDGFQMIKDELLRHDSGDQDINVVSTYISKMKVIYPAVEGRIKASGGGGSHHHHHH
Briefly: ELISA, plate coated with recombinant CD73 extracellular domain.

Test [6] addresses T4, recombinant human CD73 extracellular domain (Trp27-Lys546) with C-terminal 6-histidine tag (human, UniProt P21589 27-547).
T4 construct: also called hCD73; hCD73-cHis
T4 sequence: T3 chain with T199M, A350T, I466V
The test is described as above.

Test [7] addresses T4, recombinant human CD73 extracellular …. Briefly: SPR, Biacore T200, antibody captured on Protein A chip, hCD73 ECD as analyte, 1:1 Langmuir. The procedure:
The affinity of CD73 antibody was determined by plasma surface resonance on Biacore T200. At room temperature, the antibody concentration was diluted to 0.5 μg/mL with 1×HBS-EP buffer (prepared from HBS-EP+Buffer 10×, GE, BR1008-26), the Protein A chip (GE, 29-1275-56) was coated with a flow rate of 10 μL per minute, the capture time was about 40 seconds, and the coated RU value was controlled to be about 100 RU. The recombinant human CD73 extracellular domain protein was diluted to 3 μg/mL with 1×HBS-EP buffer, diluted to two-fold gradient, a total of 6 concentrations, 200 μL of each concentration gradient. The 1×HBS-EP buffer was used as a control, the flow rate was 30 μl/min, the binding time was 120 seconds, and the dissociation time was 600 seconds. The affinity was fitted using Langmuir 1:1 Kinetic theoretical model and analyzed by Biacore T200 Evaluation Software (Table 3).

For test [8] the target is unchanged. Briefly: cell-based or functional assay.
The target in test [9] is T2, human CD73 on Calu6 cells. Briefly: cell-based or functional assay. This is another data set of the same source.
Test [10] addresses T2, human CD73 on Calu6 cells. The experiment in a line: cell-based or functional assay. This is another data set of the same source.

B1: CD73 antibody 8A8 (antibody, V domains shown)
VH: QVQFQQSGAELARPGASVKLSCKASGYIFTSYWIQWIKQRPGQGLEWIGAIYPGDGDTRYTQKFKGKATLTADKSSSTAYMQLRSLASEDSAVYYCAGFASWGQGTLLTVSA
VL: DIQMTQSPSSLSASLGERVSLTCRASQDIGESLIWLQQEPDGTIKRLIYATSSLDSGVPKRFSGSRSGSDYSLSISSLESDDFVDYYCLQYSSSPYTFGGGTKLEIK
notes: Mouse variable regions on human IgG heavy chain constant region and human kappa constant region (chimeric IgG); also called Clone 8A8
With B1, in test [1], the EC50 was determined as 1.47 nM. Also, in test [2], the “Inhibition of CD73 enzyme activity IC50(nM), Calu6” value (“Inhibition … Calu6” for short) was found to be 4.89 nM. The same molecule came in with an EC50 in test [3] of 0.61 nM. In addition, in test [4], the “CD73 endocytosis ratio %, 30 minutes” value worked out at 21.2%; the “CD73 endocytosis ratio %, 60 minutes” value is 25.6%; the “CD73 endocytosis ratio %, 120 minutes” value came to 27.3%; the “CD73 endocytosis ratio %, 240 minutes” value is 44.2%. Moreover, the “CD73 endocytosis ratio %, 480 minutes” value in test [4] stood at 40.5%. In addition, the half-maximal effective concentration (EC50) in test [5] stood at 0.02 nM. For the same molecule, the EC50 in test [6] was found to be 0.02 nM.

B2: CD73 antibody 7E10 (antibody, V domains shown)
VH: B1 VH with A12V, T30S, I37V, G66D, R84S, L108V
VL: B1 VL with E31S, I34N, D41N, S74T, D81E, V84A, S92A
notes: Mouse variable regions on human IgG heavy chain constant region and human kappa constant region (chimeric IgG); also called Clone 7E10
With B2, the concentration giving a half-maximal response (EC50) came out at 8.59 nM in [1], 2.52 nM in test [3], 0.11 nM in test [5] and 0.07 nM in test [6]. The “Inhibition … Calu6” value in [2] turned out to be 7.66 nM. Moreover, the “CD73 endocytosis ratio %, 30 minutes” value in test [4] is 9.9%. The “CD73 endocytosis ratio %, 60 minutes” value in [4] came to 25.1%. In test [4], the “CD73 endocytosis ratio %, 240 minutes” value was found to be 6.6%. Besides, the “CD73 endocytosis ratio %, 480 minutes” value in test [4] came to 6.2%.

B3: CD73 antibody 14H10 (antibody, V domains shown)
VH: QIQLQQSGAELARPGASVNLSCKASGYSFTSYWMQWLKQRPGQGLEWIGAIYPGDGDTRYTQKFKGKATLTADKSSSTAYMQLSSLASEDSAVYYCALFSYWGQGTLVTVSA
VL: B1 VL with E31S, I34N, I44F, S53T, S74T, D81E, S92A, S94F
notes: Mouse variable regions on human IgG heavy chain constant region and human kappa constant region (chimeric IgG)
As to B3, the EC50 in [1] turned out to be 2.62 nM; in test [3], 2.28 nM; in test [5], 0.07 nM; in test [6] it was 0.03 nM. Further, in test [2], the “Inhibition … Calu6” value stood at 1.71 nM. Moreover, in [4], the “CD73 endocytosis ratio %, 60 minutes” value came to 33.1%.

B4: CD73 antibody 22C12 (antibody, V domains shown)
VH: QVQFQQSGAELARPGASVKLSCKASGYTFTGYWIQWVKQRPGQGLEWIGAIYPGDDDTRYTQKFKGRATLTADTSSSTAYMQLSSLASEDSAVYYCARGNWDDWDFDVWGAGTTVTVSS
VL: DIQMTQTTSSLSASLGDRVTISCRASQDISNYLNWYQQKPDGTVKLLIHYTSRLHSGVPSRFSGSGSGTDYSLTISNLEQEDIATYFCQQGDTLPWTFGGGTKLEIK
notes: Mouse variable regions on human IgG heavy chain constant region and human kappa constant region (chimeric IgG); also called Clone 22C12; mAb22C12
Regarding B4, the EC50 was 1.43 nM in test [1], 1.2 nM in test [3], 0.05 nM in [5] and 0.04 nM in test [6]. Further, the “Inhibition … Calu6” value in test [2] stood at 0.97 nM. Also, the “CD73 endocytosis ratio %, 60 minutes” value in test [4] amounted to 6.1%. The “CD73 endocytosis ratio %, 120 minutes” value in [4] was determined as 11.1%. The “CD73 endocytosis ratio %, 480 minutes” value in test [4] worked out at 13.2%.

B5: CD73 antibody 6G8 (chimeric) (antibody, V domains shown)
VH: QVTLKESGPGILKPSQTLSLTCSFSGFSLNTSGMGVGWIRQPSGKGLEWLAHIWWDDDKYYNPSLKSQLTISKDTSRNQVFLRIASVDTADTATYYCARRERWAWFAYWGQGTLVTVSA
VL: DIVMTQSQKFMSASVGDRVSVTCKASQNVFTNVAWYQQKPGQSPKVLIYSASYRYSGVPDRFTGSGSGTDFTLTINNVQSEDLAEYFCQQYNSYPTFGSGTKLEIK
notes: Mouse variable regions on human IgG heavy chain constant region and human kappa constant region (chimeric IgG); also called Clone 6G8; 6G8 Chimera
In turn, B5 registered a concentration giving a half-maximal response (EC50) in test [1] of 1.91 nM. Besides, in test [7], the Kd was 0.18 nM, the koff was 0.000111 s⁻¹ and the on-rate (kon) turned out to be 617000 M⁻¹ s⁻¹. Also, the “Inhibition … Calu6” value in test [2] was 1.72 nM. For the same molecule, in [8], the “Inhibition of CD73 enzyme activity IC50(nM), Soluble CD73” value is 1.03 nM. In test [3], this molecule yielded an EC50 of 1.03 nM. For the same molecule, in test [4], the “CD73 endocytosis ratio %, 30 minutes” value was determined as 17.1%; the “CD73 endocytosis ratio %, 60 minutes” value is 38.5%; the “CD73 endocytosis ratio %, 120 minutes” value worked out at 22.2%; the “CD73 endocytosis ratio %, 240 minutes” value stood at 35.3%. Moreover, the “CD73 endocytosis ratio %, 480 minutes” value in test [4] is 47.7%. Besides, in test [5], the concentration for a half-maximal effect (EC50) came out at 0.02 nM. The EC50 in test [6] is 0.02 nM.

B6: humanized anti-CD73 antibody 6G8 VH-v8/VK-v4 (antibody, V domains shown)
VH: QVTLRESGPALVKPTQTLTLTCTFSGFSLSTSGMGVGWIRQPPGKALEWLAHIWWDEDKYYNPSLKSRLTISKDTSKNQVVLTMTNMDPVDTATYYCARRERWAWFAYWGQGTLVTVSS
VL: EIVMTQSPATLSVSPGERATLSCRASQNVFTNVAWYQQKPGQAPRVLIYSASYRYSGIPARFSGSGSGTEFTLTISSLQSEDFAVYFCQQYNSYPTFGQGTKLEIK
notes: Human IgG1 CH1-CH3 constant region and kappa constant region; also called hu6G8 VHv8 + hu6G8 VkV4
Turning to B6, in [7], the equilibrium dissociation constant (Kd) amounted to 0.257 nM, the dissociation rate constant (koff) is 8.48e-05 s⁻¹ and the kon was determined as 330000 M⁻¹ s⁻¹. In test [9], the “CD73 endocytosis ratio %, 0 minute” value turned out to be 0%; the “CD73 endocytosis ratio %, 30 minutes” value was 28%; the “CD73 endocytosis ratio %, 120 minutes” value was 37%; the “CD73 endocytosis ratio %, 240 minutes” value amounted to 46%.

B7: control antibody 11F11-huG1 (antibody, from another filing, human IgG1, V domains shown)
VH: QVQLVESGGGVVQPGRSLRLSCATSGFTFSNYGMHWVRQAPGKGLEWVAVILYDGSNKYYPDSVKGRFTISRDNSKNTLYLQMNSLRAEDTAVYYCARGGSSWYPDSFDIWGQGTMVTVSS
VL: DIQMTQSPSSLSASVGDRVTITCRASQGISSWLAWYQQKPEKAPKSLIYAASSLQSGVPSRFSGSGSGTDFTLTISSLQPEDFATYYCQQYNSYPLTFGGGTKVEIKR
Take B7: in [10], the CD73 endocytosis ratio %, 0 minute was determined as 0%; the CD73 endocytosis ratio %, 30 minutes is 28%; the CD73 endocytosis ratio %, 120 minutes was determined as 31%; the CD73 endocytosis ratio %, 240 minutes was 46%.
